Test results reported in patent US20180037632A1 (BIONTECH, published 2018).
Positions of bridges follow the written chain, without caps; N, C: chain ends. No end group written: not given here.

Legend:
[1] = target: T1, recombinant soluble human Seprase (rhuSeprase) (human, UniProt Q12884 29-760); assay: SPR (Biacore T-100), rhuSeprase immobilized on CM5, multi cycle kinetics, 1:1 fit
T1 construct: range 29-760; Secreted from CHO-S cells with a mouse Ig kappa secretion signal (not part of the protein in the assay); also called recombinant human Seprase; soluble fraction of human Seprase
T1 sequence: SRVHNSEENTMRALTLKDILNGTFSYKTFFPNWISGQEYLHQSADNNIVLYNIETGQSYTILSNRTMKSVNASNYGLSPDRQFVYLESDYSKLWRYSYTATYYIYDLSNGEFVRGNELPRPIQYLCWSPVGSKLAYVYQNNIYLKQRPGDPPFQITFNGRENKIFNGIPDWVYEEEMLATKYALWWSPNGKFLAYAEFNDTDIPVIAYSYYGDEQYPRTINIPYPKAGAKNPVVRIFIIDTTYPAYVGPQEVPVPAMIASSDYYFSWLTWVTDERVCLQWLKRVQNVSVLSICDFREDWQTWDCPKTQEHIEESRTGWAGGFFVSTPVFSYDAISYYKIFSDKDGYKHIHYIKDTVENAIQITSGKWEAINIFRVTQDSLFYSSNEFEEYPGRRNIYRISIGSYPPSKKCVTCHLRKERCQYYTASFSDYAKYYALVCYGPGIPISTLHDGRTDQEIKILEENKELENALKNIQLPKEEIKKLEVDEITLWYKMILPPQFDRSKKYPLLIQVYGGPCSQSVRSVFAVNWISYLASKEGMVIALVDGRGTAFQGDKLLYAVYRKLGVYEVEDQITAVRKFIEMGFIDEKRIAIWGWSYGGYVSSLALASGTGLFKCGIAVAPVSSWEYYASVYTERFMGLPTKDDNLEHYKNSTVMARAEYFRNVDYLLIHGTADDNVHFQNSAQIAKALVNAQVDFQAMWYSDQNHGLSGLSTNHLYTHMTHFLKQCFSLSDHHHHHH
Experimental: (§1) RhuSeprase (20 μg/ml in PBS, 5% mannitol, 5% trehalose) was immobilized on an amino reactive Series S Sensor Chip CM5 (GE Healthcare). For binding analysis of monomeric Microbodies rhuSeprase was loaded to a maximum of 7500 RU, for oligomeric Microbodies to a maximum of 700 RU. Monomeric Microbodies were measured using a multi cycle kinetic method in a concentration range of 3.125 to 1000 nM based on expected dissociation constant. Association step was measured over a time period of 60-90 seconds, dissociation over 420 seconds. Trimeric Mircobodies were measured using a single cycle kinetics method in a concentration range of 0.3125 to 5 nM (association for 90 seconds, dissociation 420 seconds). Binding kinetics and steady state analysis were calculated using a 1:1 binding model (Biacore T-100 Evaluation Software, GE Healthcare).
(§2) The binding kinetics of monomeric and trimeric Seprase-binding Microbodies was determined using surface plasmon resonance spectroscopy on a Biacore T-100 system.

[2] = target: T1, recombinant soluble human Seprase …; assay: SPR (Biacore T-100), rhuSeprase immobilized on CM5, steady state analysis, 1:1 fit
Experimental: as §1, §2

[3] = target: T1, recombinant soluble human Seprase …; assay: direct ELISA on coated rhuSeprase; binding relative to the parental Trx-MC-FA-010
Experimental: (§3) For protein based ELISA analysis 5 μg of the respective recombinant protein (rhuSeprase; streptavidin: Sigma; DPP-IV: R&D Systems, BSA: Eurobio) were immobilized per well of a MaxiSorp™ plate (Nunc) by overnight incubation in coating buffer at 4° C. After washing thrice with 300 μl PBS-T/well on a Hydrospeed plate washer (Tecan) the wells were blocked with 1×Casein solution (Sigma, diluted in PBS) for 2 h at RT. Subsequently, the wells were washed as indicated above. 100 μl of the respective Trx-miniprotein fusion diluted in PBS-T was then added and incubated for 1 h at 4° C. […] For competition ELISAs a fixed concentration of 3 nM Trx-miniprotein fusion was mixed with varying concentration (0.64-3167 nM) of solitary miniprotein before incubation. Binding of the Trx-fusion was detected after a PBS-T washing procedure using HRP coupled anti S-tag antibody as described above. Apparent Kd was calculated using Sigmaplot 10 and an one site saturation binding model for fitting of the data.

[4] = target: T1, recombinant soluble human Seprase …; assay: direct ELISA on coated rhuSeprase, Trx fusion detected with anti-S-tag-HRP; apparent KD from one site saturation fit; Error 1,17; R2 0,9981
Experimental: as §3

[5] = target: T1, recombinant soluble human Seprase …; assay: direct ELISA on coated rhuSeprase, Trx fusion detected with anti-S-tag-HRP; apparent KD from one site saturation fit; Error 0,54; R2 0,9981
Experimental: as §3

[6] = target: T1, recombinant soluble human Seprase …; assay: direct ELISA on coated rhuSeprase, Trx fusion detected with anti-S-tag-HRP; apparent KD from one site saturation fit; Error 3,04; R2 0,9976
Experimental: as §3

[7] = target: T1, recombinant soluble human Seprase …; assay: direct ELISA on coated rhuSeprase, Trx fusion detected with anti-S-tag-HRP; apparent KD from one site saturation fit; Error 1,02; R2 0,9976
Experimental: as §3

[8] = target: T1, recombinant soluble human Seprase …; assay: direct ELISA on coated rhuSeprase, Trx fusion detected with anti-S-tag-HRP; apparent KD from one site saturation fit; Error 11,54; R2 0,9969
Experimental: as §3

[9] = target: T1, recombinant soluble human Seprase …; assay: direct ELISA on coated rhuSeprase, Trx fusion detected with anti-S-tag-HRP; apparent KD from one site saturation fit; Error 1,76; R2 0,9973
Experimental: as §3

[10] = target: T1, recombinant soluble human Seprase …; assay: direct ELISA on coated rhuSeprase, Trx fusion detected with anti-S-tag-HRP; apparent KD from one site saturation fit; Error 1,17; R2 0,9977
Experimental: as §3

[11] = target: T1, recombinant soluble human Seprase …; assay: SPR (Biacore T-100)
Experimental: as §1, §2

[12] = target: T1, recombinant soluble human Seprase …; assay: SPR (Biacore T-100), rhuSeprase immobilized on CM5, single cycle kinetics, 1:1 fit
Experimental: as §1, §2

B1: MC-FA-012 (designed binder)
chain: GACPYSNWTPGRGPDCRRDSDCPGRCICRGNGYCG
modifications: disulfide (positions not given here)
notes: it is derived from MC-FA-010 and K2A; also called MC-FA-012 (K2A); monomeric MC-FA-012 Microbody
Kd [1]: 340 nM | koff [1]: 0.139 s⁻¹ | kon [1]: 408000 M⁻¹ s⁻¹ | Kd [2]: 246 nM

B2: Trx-MC-FA-011 (designed binder)
chain: AKCPYSNWTPGRGPDCRRDSDCPGRCICRGNGYCG
modifications: disulfide 16-28, 22-34, 3-26; also: N-terminal Trx-His6-S-tag fusion carrier, letters not given here
notes: the position follows from the order of the rows; also called alanine scan variant G1A of MC-FA-010, Trx fusion; not shown: Thioredoxin-A, His-tag (H6), S-tag and linker of the pET-32-LibEx fusion, N-terminal of the miniprotein
Relative Bindung im Vergleich zu Trx-MC-FA-010 [%] [3]: 74.5% | Kd [4]: 20.3 nM

B3: Trx-MC-FA-012 fusion protein (designed binder)
chain: GACPYSNWTPGRGPDCRRDSDCPGRCICRGNGYCG
modifications: disulfide 16-28, 22-34, 3-26; also: N-terminal Trx-His6-S-tag fusion carrier, not in chain
notes: also called MC-FA-012 (K2A) alanine scan variant; not shown: N-terminal carrier of the pET-32-LibEx fusion (thioredoxin-A, His tag, S-tag, thrombin site, vector linkers)
Relative Bindung im Vergleich zu Trx-MC-FA-010 [%] [3]: 160% | Kd [5]: 9.49 nM

B4: Trx-MC-FA-013 (designed binder)
chain: GKCAYSNWTPGRGPDCRRDSDCPGRCICRGNGYCG
modifications: disulfide 16-28, 22-34, 3-26; also: N-terminal Trx-His6-S-tag fusion carrier, not in chain
notes: the position follows from the order of the rows; also called alanine scan variant P4A of MC-FA-010, Trx fusion; not shown: Thioredoxin-A, His-tag (H6), S-tag and linker of the pET-32-LibEx fusion, N-terminal of the miniprotein
Relative Bindung im Vergleich zu Trx-MC-FA-010 [%] [3]: 33.7% | Kd [6]: 44.9 nM

B5: Trx-MC-FA-015 (designed binder)
chain: GKCPYANWTPGRGPDCRRDSDCPGRCICRGNGYCG
modifications: disulfide 16-28, 22-34, 3-26; also: N-terminal Trx-His6-S-tag fusion carrier, not in chain
notes: the position follows from the order of the rows; also called alanine scan variant S6A of MC-FA-010, Trx fusion; not shown: thioredoxin-A, His6 tag, S-tag and linkers of the pET-32-LibEx fusion (N-terminal carrier)
Relative Bindung im Vergleich zu Trx-MC-FA-010 [%] [3]: 93.6% | Kd [7]: 16.2 nM

B6: Trx-MC-FA-016 (designed binder)
chain: GKCPYSAWTPGRGPDCRRDSDCPGRCICRGNGYCG
modifications: disulfide (positions not given here); also: N-terminal thioredoxin-A, His6, S-tag and linker carrier, letters not given here
notes: the position follows from the order of the rows; also called alanine scan variant N7A of MC-FA-010, Trx fusion; not shown: thioredoxin-A, His6 tag, S-tag and linkers of the pET-32-LibEx fusion (N-terminal carrier)
Relative Bindung im Vergleich zu Trx-MC-FA-010 [%] [3]: 13.4% | Kd [8]: 113 nM

B7: Trx-MC-FA-0114 (designed binder)
chain: GKCPYSNWTPGRGPACRRDSDCPGRCICRGNGYCG
modifications: disulfide 16-28, 22-34, 3-26; also: N-terminal Trx-His6-S-tag fusion carrier, not in chain
notes: the position follows from the order of the rows; also called alanine scan variant D15A of MC-FA-010, Trx fusion; not shown: Thioredoxin-A, His-tag (H6), S-tag and linker of the pET-32-LibEx fusion, N-terminal of the miniprotein
Relative Bindung im Vergleich zu Trx-MC-FA-010 [%] [3]: 59.2% | Kd [9]: 25.6 nM

B8: Trx-MC-FA-0115 (designed binder)
chain: GKCPYSNWTPGRGPDCRRDSDCPGACICRGNGYCG
modifications: disulfide 16-28, 22-34, 3-26; also: N-terminal Trx-His6-S-tag fusion carrier, not in chain
notes: also called alanine scan variant R25A of MC-FA-010, Trx fusion; not shown: Thioredoxin-A, His-tag (H6), S-tag and linker of the pET-32-LibEx fusion, N-terminal of the miniprotein
Relative Bindung im Vergleich zu Trx-MC-FA-010 [%] [3]: 80.7% | Kd [10]: 18.8 nM

B9: AlexaFluor680-(MC-FA-012)3 (designed binder, not shown: small tags and cut ends)
chain 1: GACPYSNWTPGRGPDCRRDSDCPGRCICRGNGYCG
chain 2: GACPYSNWTPGRGPDCRRDSDCPGRCICRGNGYCG
chain 3: GACPYSNWTPGRGPDCRRDSDCPGRCICRGNGYCG
modifications: each of chains 1-3: N-terminal aminooxy group oxime-ligated to the anchor; three disulfides (cystine knot) per chain; anchor carries AlexaFluor680 at its N-terminal amine
notes: Purchased from Pepscan; also called AF680-(MC-FA-012)3
times slower offrate compared to MC-FA-012 [11]: ~134 fold | Kd [12]: 0.0615 nM | kon [12]: 1.68e+07 M⁻¹ s⁻¹ | Kd [2]: 0.669 nM

GSGACPYTRWAVGRGPDCRRDSDCPGRCICRGNGYCG (designed binder) [FA8-D03]
Kd [1]: 147 nM | koff [1]: 0.138 s⁻¹ | kon [1]: 939000 M⁻¹ s⁻¹ | Kd [2]: 151 nM

GSGACPYSRWMPGRGPSCRRDSDCPGRCICRGNGYCG (designed binder) [FA7-A05]
Kd [1]: 205 nM | koff [1]: 0.0503 s⁻¹ | kon [1]: 246000 M⁻¹ s⁻¹ | Kd [2]: 102 nM

GSGACPYTNWRPGRGPACRRDSDCPGRCICRGNGYCG (designed binder) [FA8-C09]
Kd [1]: 296 nM | koff [1]: 2.94 s⁻¹ | kon [1]: 9.92e+06 M⁻¹ s⁻¹ | Kd [2]: 243 nM

GSGACPYTRWQPGRGPSCRRDSDCPGRCICRGNGYCG (designed binder) [FA8-D05]
Kd [1]: 193 nM | koff [1]: 0.812 s⁻¹ | kon [1]: 4.21e+06 M⁻¹ s⁻¹ | Kd [2]: 177 nM

GSGACPYSRWAVGRGPDCRRDSDCPGRCICRGNGYCG (designed binder) [FA8-D06]
Kd [1]: 153 nM | koff [1]: 0.053 s⁻¹ | kon [1]: 346000 M⁻¹ s⁻¹ | Kd [2]: 113 nM

GSGACPYSNWAVGRGPSCRRDSDCPGRCICRGNGYCG (designed binder) [FA8-F04]
Kd [1]: 321 nM | koff [1]: 0.2 s⁻¹ | kon [1]: 624000 M⁻¹ s⁻¹ | Kd [2]: 332 nM

GSGACPYTNWHPGRGPACRRDSDCPGRCICRGNGYCG (designed binder) [FA8-G12]
Kd [1]: 487 nM | koff [1]: 0.317 s⁻¹ | kon [1]: 651000 M⁻¹ s⁻¹ | Kd [2]: 470 nM

GSGACPYSNWTPGRGPDCSQDSDCLAGCVCGPNGFCG (designed binder) [ET-FA-012]
Kd [1]: 1400 nM | koff [1]: 0.853 s⁻¹ | kon [1]: 608000 M⁻¹ s⁻¹ | Kd [2]: 4540 nM

GSGACPYSNWTPGRGPDCSSDSDCPGACICLENGFCG (designed binder) [MO-FA-012]
Kd [1]: 1340 nM | koff [1]: 0.513 s⁻¹ | kon [1]: 382000 M⁻¹ s⁻¹ | Kd [2]: 1160 nM
